The source of these data is patent US20240270846A1 (published 2024).

The assay deals with T1, CD3 epsilon homodimer protein (UniProt P07766 23-126).
T1 construct: also called CD3 (CD3 epsilon)
The assay can be described thus: SPR (Biacore T200), CD3e homodimer on CM4 chip, antibody as analyte; KD ratio vs unaltered GLS3000.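 Further: CD3 epsilon homodimer amine-coupled to the sensor surface, antibodies injected as analyte at 25 °C with HBS-EP+ running buffer.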

T1 sequence (P07766 23-126): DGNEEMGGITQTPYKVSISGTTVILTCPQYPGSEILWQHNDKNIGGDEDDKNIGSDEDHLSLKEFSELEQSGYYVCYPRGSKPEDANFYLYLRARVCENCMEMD
Protocol: An appropriate amount of CD3 epsilon homodimer protein was immobilized onto Sensor chip CM4 (GE Healthcare Japan Corp.) by the amine coupling method. Then, the antibody having an appropriate concentration was injected thereto as an analyte and allowed to interact with the CD3 epsilon homodimer protein on the sensor chip. Then, the sensor chip was regenerated by the injection of 10 mmol/L glycine-HCl (pH 1.5). The assay was conducted at 25 degrees C., and HBS-EP+(GE Healthcare Japan Corp.) was used as a running buffer. […] Each parameter was calculated using Biacore T200 Evaluation Software (GE Healthcare Japan Corp.).
Specifically, when the amount of the GLS3000-containing antibody bound was defined as X and the amount of the L chain one-amino acid altered form bound was defined as Y, a value of Z (ratio of amounts bound)=Y/X was used.

B1: CE115HA000/GLS3000 G89H one-arm antibody (antibody, human IgG1, kappa, L234A L235A, N297A, name in Kabat numbering)
heavy: QVQLVESGGGVVQPGRSLRLSCAASGFTFSNAWMHWVRQAPGKGLEWVAQIKAKSNNYATYYAESVKGRFTISRDDSKNSLYLQMNSLKTEDTAVYYCRYVHYGAYYGVDAWGQGTTVTVSSASTKGPSVFPLAPSSKSTSGGTAALGCLVKDYFPEPVTVSWNSGALTSGVHTFPAVLQSSGLYSLSSVVTVPSSSLGTQTYICNVNHKPSNTKVDKKVEPKSCDKTHTCPPCPAPEAAGGPSVFLFPPKPKDTLMISRTPEVTCVVVDVSHEDPEVKFNWYVDGVEVHNAKTKPREEQYASTYRVVSVLTVLHQDWLNGKEYKCKVSNKALPAPIEKTISKAKGQPREPQVYTLPPSRCELTKNQVSLSCAVKGFYPSDIAVEWESNGQPENNYKTTPPVLDSDGSFFLVSKLTVDKSRWQQGNVFSCSVMHEALHNHYTQKSLSLSPDYKDDDDK
chain: EPKSSDKTHTCPPCPAPELLGGPSVFLFPPKPKDTLMISRTPEVTCVVVDVSHEDPEVKFNWYVDGVEVHNAKTKPREEQYNSTYRVVSVLTVLHQDWLNGKEYKCKVSNKALPAPIEKTISKAKGQPREPQVCTLPPSRDELTKNQVSLWCLVKGFYPSDIAVEWESNGQPENNYKTTPPVLDSDGSFFLYSKLTVDKSRWQQGNVFSCSVMHEALHNRYTQKSLSLSP
light: DIVMTQSPLSLPVTPGEPASISCRSSQSLVHSNRNTYLHWYQQKPGQAPRLLIYKVSNRFSGVPDRFSGSGSGTDFTLKISRVEAEDVGVYYCHQGTQVPYTFGQGTKLEIKRTVAAPSVFIFPPSDEQLKSGTASVVCLLNNFYPREAKVQWKVDNALQSGNSQESVTEQDSKDSTYSLSSTLTLSKADYEKHKVYACEVTHQGLSSPVTKSFNRGEC
notes: one-arm IgG1
B1: the “KD ratio to GLS3000” value turned out to be 1.44 ratio.

B2: CE115HA000/GLS3000 G89K one-arm antibody (antibody, human IgG1, kappa, L234A L235A, N297A, name in Kabat numbering)
heavy: QVQLVESGGGVVQPGRSLRLSCAASGFTFSNAWMHWVRQAPGKGLEWVAQIKAKSNNYATYYAESVKGRFTISRDDSKNSLYLQMNSLKTEDTAVYYCRYVHYGAYYGVDAWGQGTTVTVSSASTKGPSVFPLAPSSKSTSGGTAALGCLVKDYFPEPVTVSWNSGALTSGVHTFPAVLQSSGLYSLSSVVTVPSSSLGTQTYICNVNHKPSNTKVDKKVEPKSCDKTHTCPPCPAPEAAGGPSVFLFPPKPKDTLMISRTPEVTCVVVDVSHEDPEVKFNWYVDGVEVHNAKTKPREEQYASTYRVVSVLTVLHQDWLNGKEYKCKVSNKALPAPIEKTISKAKGQPREPQVYTLPPSRCELTKNQVSLSCAVKGFYPSDIAVEWESNGQPENNYKTTPPVLDSDGSFFLVSKLTVDKSRWQQGNVFSCSVMHEALHNHYTQKSLSLSPDYKDDDDK
chain: EPKSSDKTHTCPPCPAPELLGGPSVFLFPPKPKDTLMISRTPEVTCVVVDVSHEDPEVKFNWYVDGVEVHNAKTKPREEQYNSTYRVVSVLTVLHQDWLNGKEYKCKVSNKALPAPIEKTISKAKGQPREPQVCTLPPSRDELTKNQVSLWCLVKGFYPSDIAVEWESNGQPENNYKTTPPVLDSDGSFFLYSKLTVDKSRWQQGNVFSCSVMHEALHNRYTQKSLSLSP
light: DIVMTQSPLSLPVTPGEPASISCRSSQSLVHSNRNTYLHWYQQKPGQAPRLLIYKVSNRFSGVPDRFSGSGSGTDFTLKISRVEAEDVGVYYCKQGTQVPYTFGQGTKLEIKRTVAAPSVFIFPPSDEQLKSGTASVVCLLNNFYPREAKVQWKVDNALQSGNSQESVTEQDSKDSTYSLSSTLTLSKADYEKHKVYACEVTHQGLSSPVTKSFNRGEC
notes: one-arm IgG1
As to B2, the “KD ratio to GLS3000” value was found to be 1.8 ratio.

B3: CE115HA000/GLS3000 G89M one-arm antibody (antibody, human IgG1, kappa, L234A L235A, N297A, name in Kabat numbering)
heavy: QVQLVESGGGVVQPGRSLRLSCAASGFTFSNAWMHWVRQAPGKGLEWVAQIKAKSNNYATYYAESVKGRFTISRDDSKNSLYLQMNSLKTEDTAVYYCRYVHYGAYYGVDAWGQGTTVTVSSASTKGPSVFPLAPSSKSTSGGTAALGCLVKDYFPEPVTVSWNSGALTSGVHTFPAVLQSSGLYSLSSVVTVPSSSLGTQTYICNVNHKPSNTKVDKKVEPKSCDKTHTCPPCPAPEAAGGPSVFLFPPKPKDTLMISRTPEVTCVVVDVSHEDPEVKFNWYVDGVEVHNAKTKPREEQYASTYRVVSVLTVLHQDWLNGKEYKCKVSNKALPAPIEKTISKAKGQPREPQVYTLPPSRCELTKNQVSLSCAVKGFYPSDIAVEWESNGQPENNYKTTPPVLDSDGSFFLVSKLTVDKSRWQQGNVFSCSVMHEALHNHYTQKSLSLSPDYKDDDDK
chain: EPKSSDKTHTCPPCPAPELLGGPSVFLFPPKPKDTLMISRTPEVTCVVVDVSHEDPEVKFNWYVDGVEVHNAKTKPREEQYNSTYRVVSVLTVLHQDWLNGKEYKCKVSNKALPAPIEKTISKAKGQPREPQVCTLPPSRDELTKNQVSLWCLVKGFYPSDIAVEWESNGQPENNYKTTPPVLDSDGSFFLYSKLTVDKSRWQQGNVFSCSVMHEALHNRYTQKSLSLSP
light: DIVMTQSPLSLPVTPGEPASISCRSSQSLVHSNRNTYLHWYQQKPGQAPRLLIYKVSNRFSGVPDRFSGSGSGTDFTLKISRVEAEDVGVYYCMQGTQVPYTFGQGTKLEIKRTVAAPSVFIFPPSDEQLKSGTASVVCLLNNFYPREAKVQWKVDNALQSGNSQESVTEQDSKDSTYSLSSTLTLSKADYEKHKVYACEVTHQGLSSPVTKSFNRGEC
notes: one-arm IgG1
For the molecule B3, the “KD ratio to GLS3000” value is 1.96 ratio.

B4: CE115HA000/GLS3000 G89L one-arm antibody (antibody, human IgG1, kappa, L234A L235A, N297A, name in Kabat numbering)
heavy: QVQLVESGGGVVQPGRSLRLSCAASGFTFSNAWMHWVRQAPGKGLEWVAQIKAKSNNYATYYAESVKGRFTISRDDSKNSLYLQMNSLKTEDTAVYYCRYVHYGAYYGVDAWGQGTTVTVSSASTKGPSVFPLAPSSKSTSGGTAALGCLVKDYFPEPVTVSWNSGALTSGVHTFPAVLQSSGLYSLSSVVTVPSSSLGTQTYICNVNHKPSNTKVDKKVEPKSCDKTHTCPPCPAPEAAGGPSVFLFPPKPKDTLMISRTPEVTCVVVDVSHEDPEVKFNWYVDGVEVHNAKTKPREEQYASTYRVVSVLTVLHQDWLNGKEYKCKVSNKALPAPIEKTISKAKGQPREPQVYTLPPSRCELTKNQVSLSCAVKGFYPSDIAVEWESNGQPENNYKTTPPVLDSDGSFFLVSKLTVDKSRWQQGNVFSCSVMHEALHNHYTQKSLSLSPDYKDDDDK
chain: EPKSSDKTHTCPPCPAPELLGGPSVFLFPPKPKDTLMISRTPEVTCVVVDVSHEDPEVKFNWYVDGVEVHNAKTKPREEQYNSTYRVVSVLTVLHQDWLNGKEYKCKVSNKALPAPIEKTISKAKGQPREPQVCTLPPSRDELTKNQVSLWCLVKGFYPSDIAVEWESNGQPENNYKTTPPVLDSDGSFFLYSKLTVDKSRWQQGNVFSCSVMHEALHNRYTQKSLSLSP
light: DIVMTQSPLSLPVTPGEPASISCRSSQSLVHSNRNTYLHWYQQKPGQAPRLLIYKVSNRFSGVPDRFSGSGSGTDFTLKISRVEAEDVGVYYCLQGTQVPYTFGQGTKLEIKRTVAAPSVFIFPPSDEQLKSGTASVVCLLNNFYPREAKVQWKVDNALQSGNSQESVTEQDSKDSTYSLSSTLTLSKADYEKHKVYACEVTHQGLSSPVTKSFNRGEC
notes: one-arm IgG1
As to B4, the “KD ratio to GLS3000” value was found to be 2.38 ratio.

B5: CE115HA000/GLS3000 G89I one-arm antibody (antibody, human IgG1, kappa, L234A L235A, N297A, name in Kabat numbering)
heavy: QVQLVESGGGVVQPGRSLRLSCAASGFTFSNAWMHWVRQAPGKGLEWVAQIKAKSNNYATYYAESVKGRFTISRDDSKNSLYLQMNSLKTEDTAVYYCRYVHYGAYYGVDAWGQGTTVTVSSASTKGPSVFPLAPSSKSTSGGTAALGCLVKDYFPEPVTVSWNSGALTSGVHTFPAVLQSSGLYSLSSVVTVPSSSLGTQTYICNVNHKPSNTKVDKKVEPKSCDKTHTCPPCPAPEAAGGPSVFLFPPKPKDTLMISRTPEVTCVVVDVSHEDPEVKFNWYVDGVEVHNAKTKPREEQYASTYRVVSVLTVLHQDWLNGKEYKCKVSNKALPAPIEKTISKAKGQPREPQVYTLPPSRCELTKNQVSLSCAVKGFYPSDIAVEWESNGQPENNYKTTPPVLDSDGSFFLVSKLTVDKSRWQQGNVFSCSVMHEALHNHYTQKSLSLSPDYKDDDDK
chain: EPKSSDKTHTCPPCPAPELLGGPSVFLFPPKPKDTLMISRTPEVTCVVVDVSHEDPEVKFNWYVDGVEVHNAKTKPREEQYNSTYRVVSVLTVLHQDWLNGKEYKCKVSNKALPAPIEKTISKAKGQPREPQVCTLPPSRDELTKNQVSLWCLVKGFYPSDIAVEWESNGQPENNYKTTPPVLDSDGSFFLYSKLTVDKSRWQQGNVFSCSVMHEALHNRYTQKSLSLSP
light: DIVMTQSPLSLPVTPGEPASISCRSSQSLVHSNRNTYLHWYQQKPGQAPRLLIYKVSNRFSGVPDRFSGSGSGTDFTLKISRVEAEDVGVYYCIQGTQVPYTFGQGTKLEIKRTVAAPSVFIFPPSDEQLKSGTASVVCLLNNFYPREAKVQWKVDNALQSGNSQESVTEQDSKDSTYSLSSTLTLSKADYEKHKVYACEVTHQGLSSPVTKSFNRGEC
notes: one-arm IgG1
As for B5, the “KD ratio to GLS3000” value was 1.11 ratio.

B6: CE115HA000/GLS3000 G89N one-arm antibody (antibody, human IgG1, kappa, L234A L235A, N297A, name in Kabat numbering)
heavy: QVQLVESGGGVVQPGRSLRLSCAASGFTFSNAWMHWVRQAPGKGLEWVAQIKAKSNNYATYYAESVKGRFTISRDDSKNSLYLQMNSLKTEDTAVYYCRYVHYGAYYGVDAWGQGTTVTVSSASTKGPSVFPLAPSSKSTSGGTAALGCLVKDYFPEPVTVSWNSGALTSGVHTFPAVLQSSGLYSLSSVVTVPSSSLGTQTYICNVNHKPSNTKVDKKVEPKSCDKTHTCPPCPAPEAAGGPSVFLFPPKPKDTLMISRTPEVTCVVVDVSHEDPEVKFNWYVDGVEVHNAKTKPREEQYASTYRVVSVLTVLHQDWLNGKEYKCKVSNKALPAPIEKTISKAKGQPREPQVYTLPPSRCELTKNQVSLSCAVKGFYPSDIAVEWESNGQPENNYKTTPPVLDSDGSFFLVSKLTVDKSRWQQGNVFSCSVMHEALHNHYTQKSLSLSPDYKDDDDK
chain: EPKSSDKTHTCPPCPAPELLGGPSVFLFPPKPKDTLMISRTPEVTCVVVDVSHEDPEVKFNWYVDGVEVHNAKTKPREEQYNSTYRVVSVLTVLHQDWLNGKEYKCKVSNKALPAPIEKTISKAKGQPREPQVCTLPPSRDELTKNQVSLWCLVKGFYPSDIAVEWESNGQPENNYKTTPPVLDSDGSFFLYSKLTVDKSRWQQGNVFSCSVMHEALHNRYTQKSLSLSP
light: DIVMTQSPLSLPVTPGEPASISCRSSQSLVHSNRNTYLHWYQQKPGQAPRLLIYKVSNRFSGVPDRFSGSGSGTDFTLKISRVEAEDVGVYYCNQGTQVPYTFGQGTKLEIKRTVAAPSVFIFPPSDEQLKSGTASVVCLLNNFYPREAKVQWKVDNALQSGNSQESVTEQDSKDSTYSLSSTLTLSKADYEKHKVYACEVTHQGLSSPVTKSFNRGEC
notes: one-arm IgG1
As to B6, the “KD ratio to GLS3000” value turned out to be 1.2 ratio.
